Results reported in publication PMC3485190, “Crystal Structures of Lysine-Preferred Racemases, the Non-Antibiotic Selectable Markers for Transgenic Plants” (PLoS ONE, 2012).

Legend:
[1] = tested on: T1, NCCCC[C@H](N)C(=O)O; test: steady-state racemization, chiral HPLC; format: biochemical, Pseudomonas putida; conditions: 100 mM CHES-NaOH pH 9.0, 30 µM PLP, 50°C
T1 construct: homodimer; first 25 residues (signal peptide) removed by auto-cleavage
Source text: steady-state racemization, chiral HPLC on Bar (broad-specificity amino acid racemase)

[2] = biological target: T2, Bar (broad-specificity amino acid racemase) (Pseudomonas putida, UniProt I6LNY0); test: X-ray crystallography, […] Å; format: binding; conditions: covalent, internal aldimine with Lys75; pH 8.5
T2 construct: homodimer; first 25 residues (signal peptide) removed by auto-cleavage
T2 sequence (I6LNY0 26-409): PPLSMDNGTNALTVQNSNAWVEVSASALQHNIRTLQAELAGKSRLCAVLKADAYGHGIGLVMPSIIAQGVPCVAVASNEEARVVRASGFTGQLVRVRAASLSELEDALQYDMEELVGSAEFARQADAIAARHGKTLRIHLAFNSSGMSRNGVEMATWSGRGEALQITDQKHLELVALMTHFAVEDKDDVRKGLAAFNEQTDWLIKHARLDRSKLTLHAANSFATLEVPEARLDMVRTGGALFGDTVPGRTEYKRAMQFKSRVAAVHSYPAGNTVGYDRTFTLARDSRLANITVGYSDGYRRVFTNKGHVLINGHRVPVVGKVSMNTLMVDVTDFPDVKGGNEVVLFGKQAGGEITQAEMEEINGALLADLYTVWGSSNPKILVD

[3] = biological target: T2, Bar (broad-specificity amino acid racemase); test: X-ray crystallography, […] Å; format: binding; conditions: co-crystallized with 4 mM L-lysine, pH 9.0; covalent external aldimine with PLP
[4] = biological target: the molecule itself; test: crystal structure; apo Bar (4.7 mg/ml in 10% glycerol), sitting-drop vapor diffusion at 20°C, 0.1 M Tris-HCl pH 8.5, 2.0 M ammonium sulfate; space group C2, two molecules per asymmetric unit; 2.45 Å
[5] = biological target: the molecule itself; test: crystal structure; Lyr (2.5 mg/ml), sitting-drop vapor diffusion at 20°C, 0.1 M sodium acetate pH 4.6, 0.05 M lithium chloride, 29% PEG 8000; space group C222(1), one molecule per asymmetric unit, dimer by a crystallographic two-fold axis; 1.74 Å
[6] = substrate: N=C(N)NCCC[C@H](N)C(=O)O; test: steady-state racemization, chiral HPLC; format: biochemical, Proteus mirabilis; conditions: 100 mM CHES-NaOH pH 9.0, 30 µM PLP, 50°C
Source text: (§1) steady-state racemization, chiral HPLC on Lyr (lysine racemase)

[7] = substrate: NCCCC[C@H](N)C(=O)O; test: steady-state racemization, chiral HPLC; format: biochemical, Proteus mirabilis; conditions: 100 mM CHES-NaOH pH 9.0, 30 µM PLP, 50°C
Source text: as §1

Q: Which results are given for “Bar (broad-specificity amino acid racemase) (Pseudomonas putida; A393Y)”?
A: Km [1]: 33.9 ± 3.5 mM; kcat [1]: 24.3 ± 2.18 s⁻¹; kcat/Km [1]: 715 M⁻¹ s⁻¹

Q: With Cc1ncc(COP(=O)(O)O)c(C=O)c1O [PLP] as the molecule, how does the “X-ray crystallography, 2.45 Å” value [2] read?
A: fit with an aldimine bond between the Lys75 Nζ and the PLP C4A

Q: How did the “X-ray crystallography, 3.10 Å” value [3] turn out when NCCCC[C@H](N)C(=O)O [L-Lys] was run?
A: The complex-Bar structure was established (Figure 7A, B) by co-crystallizing Bar with L-lysine.

B1: Broad-specificity amino acid racemase (Bar) from Pseudomonas putida DSM84 (enzyme, UniProt I6LNY0 26-409, looked up)
chain: T2 sequence (I6LNY0 26-409)
modifications: PLP bound to Lys75 by an internal aldimine bond (apo crystal); in the crystal with L-lysine PLP forms the external aldimine with the substrate
notes: Broad-specificity amino acid racemase (Bar, E.C. 5.1.1.10), Pseudomonas putida DSM84, gene bar amplified from chromosomal DNA into pET21a; the first 25 residues contained the signal peptide and were removed by auto-cleavage; Head-to-tail homodimer in the crystal (two molecules in the asymmetric unit); also called wild-type Bar; complex-Bar (with L-lysine)
Q: With B1 as the molecule, how does the “stoichiometry N” value [4] read?
A: 2

B2: Lysine racemase (Lyr) from Proteus mirabilis BCRC10725 (enzyme)
chain: CQQPVNYNPPATQVAQVQPAIVNNSWIEISRSALDFNVKKVQSLLGKQSSLCAVLKGDAYGHDLSLVAPIMIENNVKCIGVTNNQELKEVRDLGFKGRLMRVRNATEQEMAQATNYNVEELIGDLDMAKRLDAIAKQQNKVIPIHLALNSGGMSRNGLEVDNKSGLEKAKQISQLANLKVVGIMSHYPEEDANKVREDLARFKQQSQQVLEVMGLERNNVTLHMANTFATITVPESWLDMVRVGGIFYGDTIASTDYKRVMTFKSNIASINYYPKGNTVGYDRTYTLKRDSVLANIPVGYADGYRRVFSNAGHALIAGQRVPVLGKTSMNTVIVDITSLNNIKPGDEVVFFGKQGNSEITAEEIEDISGALFTEMSILWGATNQRVLVD
notes: also called wild-type Lyr
Q: Which results are given for B2?
A: stoichiometry N [5]: 2; Km [6]: 14.9 ± 1.0 mM; kcat [6]: 10.8 ± 0.583 s⁻¹; kcat/Km [6]: 727 M⁻¹ s⁻¹; Km [7]: 21.8 ± 0.5 mM; kcat [7]: 55.4 ± 1.13 s⁻¹; kcat/Km [7]: 2540 M⁻¹ s⁻¹
